# Measurements taken from US12311019B2, “Vaccine composition and uses thereof” (Imugene Limited, priority 2018, dated 2025).
# “Also recorded” adds a separate entry of the source.
# Key:
# [1] = biological target: T1, Jurkat T cells expressing mPD1 (Mus musculus, UniProt Q02242); experiment: Inhibition of anti-mouse PD1 mAb binding to mPD1-positive Jurkat T cells; type: cell-based; settings: mAb pre-incubated with different concentrations of JT-mPD1
# T1 construct: expressed in transfected cells; host or cells: Jurkat E6.1 NF-kB::eGFP reporter T cells (human)
# T1 sequence (Q02242 25-288): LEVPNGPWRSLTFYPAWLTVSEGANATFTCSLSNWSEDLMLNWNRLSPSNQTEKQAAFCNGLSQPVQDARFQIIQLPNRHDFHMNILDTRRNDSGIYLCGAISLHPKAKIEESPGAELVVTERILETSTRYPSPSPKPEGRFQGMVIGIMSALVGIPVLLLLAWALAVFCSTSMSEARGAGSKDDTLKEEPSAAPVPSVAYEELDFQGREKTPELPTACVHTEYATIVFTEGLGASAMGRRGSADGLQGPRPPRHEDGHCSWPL
# Description: To produced T cells expressing mouse PD-1, Jurkat E6.1 NF-κB::eGFP reporter T cell line and the K562 stimulator cell line were cultured as previously described (Battin et al. PLoS One, 2017, 12(5):e0178220; PMID: 28542462). JE6.1 NF-kB::eGFP reporter cells expressing mouse PD-1 have been previously described (Jutz et al. Oncotarget, 2017, 8(39):64892-64906; PMID: 29029399). T cell stimulator cells, based on the K562 cell line (K562S), were generated by retrovirally transducing a CD5L-OKT3scFv-CD14 construct encoding an anti-human CD3 single chain fragment fused to human CD14 (Leitner et al. J. Immunol. Methods, 2010, 362(1-2):131-141; PMID: 20858499). K562S stimulate human T cells and T cell lines by ligating their TCR-CD3 complex. In order to separate stimulator cells from reporter cells, K562S were engineered to constitutively express a red fluorescent protein (RFP). […] To confirm cell surface expression of respective molecules, a PE-conjugated anti-mPD-1 antibody (29F.1A12) from Biolegend (San Diego, CA) was used. Membrane-bound anti-CD3 fragment on K562S cells was detected with a PE-conjugated goat-anti-mouse IgG (H+L) antibody (Jackson ImmunoResearch, West Grove, PA). […] Data was analysed using FlowJo software (version 10.0.8., Tree Star, Ashland, OR) and Graphpad Prism (version 5, GraphPad Software, Inc., La Jolla, CA). […]
# [2] = tested on: rat anti-mouse PD1 monoclonal antibody (mAb) (Biolegend, clone 29F.1A12); experiment: Colony blot assay of E. coli clones expressing GST-fused overlapping mPD1 peptides; type: binding; settings: GST-fused 15-mer
# From the text: The protein sequence corresponding to the extracellular domain of mouse PD-1 (Q02242; Uniprot) was electronically back-translated into DNA sequences (ATG:Biosynthetics GmbH; Merzhausen, Germany). The protein-coding DNA sequences were partitioned into uniformly sized peptide-CDS as overlapping peptides in 15 amino acids (aa) length, with an offset of 3 aa, and the resulted DNA sequences were inserted into the expression vector pEPX-1 (ATG:Biosynthetics GmbH; Merzhausen, Germany). […] Expression vectors were used for transformation of E. coli strain BL21. Colonies (clones) of E. coli harbouring the expression vectors were picked from plates supplemented with Kanamycin and used for screening by colony blot assay. A colony harbouring the expression vector with no insert (i.e. control) was also picked.
# The clones of interest were replicated onto nitrocellulose membranes and lysed with lysis solution (Tris-HCl pH 8.0 50 mM, Lysozyme 200 μg/ml), followed by three cycles of freezing at −80C and thawing at 37C. After the last step of thawing, the membranes were incubated with the blocking solution containing PBS-5% skim milk. The blocking solution was discarded and the membranes were incubated for 2 h at RT with rat anti-mouse PD1 monoclonal antibody (mAb) (Biolegend, clone 29F.1A12). […]
sequence,measurement,setting,value
"ISLHPKAKIEESPGA (listed as Mus musculus) [JT-mPD1, amino acid residues 126-140 of mouse PD1 (Uniprot Q02242)]",inhibition of binding of anti-mouse PD1 mAb to mPD1-positive Jurkat T cells,[1],dose-dependently inhibited; also recorded: inhibited dose-dependently
same,reactivity to the rat anti-mouse PD1 monoclonal antibody,[2],reactive
